In the supplement of paper PMC11246515:
± gives the standard deviation of the averaged measurements.

Experiment: total protein half-life in vivo (active degradation + dilution); higher = more stable protein
[1] = E. coli NCM3722 delta-clpP delta-lon delta-hslV, growth: N-lim chemostat, doubling time 6 h
[2] = E. coli NCM3722 delta-clpP, growth: N-lim chemostat, doubling time 6 h
[3] = E. coli NCM3722 delta-lon, growth: N-lim chemostat, doubling time 6 h
[4] = E. coli NCM3722 delta-smpB, growth: N-lim chemostat, doubling time 6 h
[5] = wild type E. coli NCM3722, growth: C-lim chemostat, doubling time 3 h
[6] = wild type E. coli NCM3722, growth: C-lim chemostat, doubling time 6 h
[7] = wild type E. coli NCM3722, growth: C-lim chemostat, doubling time 12 h
[8] = wild type E. coli NCM3722, growth: N-lim chemostat, doubling time 6 h
[9] = wild type E. coli NCM3722, growth: P-lim chemostat, doubling time 6 h
[10] = wild type E. coli NCM3722, growth: P-lim chemostat, doubling time 12 h
[11] = wild type E. coli NCM3722, growth: N-lim chemostat, doubling time 12 h
[12] = E. coli NCM3722 delta-hslV, growth: N-lim chemostat, doubling time 6 h

MLKLFSAFRKNKIWDFNGGIHPPEMKTQSNGTPLRQVPLAQRFVIPLKQHIGAEGELCVSVGDKVLRGQPLTRGRGKMLPVHAPTSGTVTAIAPHSTAHPSALAELSVIIDADGEDCWIPRDGWADYRTRSREELIERIHQFGVAGLGGAGFPTGVKLQGGGDKIETLIINAAECEPYITADDRLMQDCAAQVVEGIRILAHILQPREILIGIEDNKPQAISMLRAVLADSNDISLRVIPTKYPSGGAKQLTYILTGKQVPHGGRSSDIGVLMQNVGTAYAVKRAVIDGEPITERVVTLTGEAIARPGNVWARLGTPVRHLLNDAGFCPSADQMVIMGGPLMGFTLPWLDVPVVKITNCLLAPSANELGEPQEEQSCIRCSACADACPADLLPQQLYWFSKGQQHDKATTHNIADCIECGACAWVCPSNIPLVQYFRQEKAEIAAIRQEEKRAAEAKARFEARQARLEREKAARLERHKSAAVQPAAKDKDAIAAALARVKEKQAQATQPIVIKAGERPDNSAIIAAREARKAQARAKQAELQQTNDAATVADPRKTAVEAAIARAKARKLEQQQANAEPEQQVDPRKAAVEAAIARAKARKLEQQQANAEPEEQVDPRKAAVEAAIARAKARKLEQQQANAEPEQQVDPRKAAVEAAIARAKARKREQQPANAEPEEQVDPRKAAVEAAIARAKARKLEQQQANAVPEEQVDPRKAAVAAAIARAQAKKAAQQKVVNED
total protein half-life in vivo [1]: 5.65 ± 0.73 h | total protein half-life in vivo [2]: 2.67 ± 0.51 h | total protein half-life in vivo [3]: > 8 h | total protein half-life in vivo [4]: 1.01 ± 0.033 h | total protein half-life in vivo [5]: 1.3 ± 0.13 h | total protein half-life in vivo [6]: 1.31 ± 0.069 h | total protein half-life in vivo [7]: 1.76 h | total protein half-life in vivo [8]: 1.16 h | total protein half-life in vivo [9]: 1.8 ± 0.14 h | total protein half-life in vivo [10]: 2.72 ± 0.58 h

MLKQVEIFTDGSCLGNPGPGGYGAILRYRGREKTFSAGYTRTTNNRMELMAAIVALEALKEHCEVILSTDSQYVRQGITQWIHNWKKRGWKTADKKPVKNVDLWQRLDAALGQHQIKWEWVKGHAGHPENERCDELARAAAMNPTLEDTGYQVEV [P0A7Y4]
total protein half-life in vivo [2]: 6.46 ± 0.89 h | total protein half-life in vivo [6]: 5.92 ± 0.082 h | total protein half-life in vivo [7]: 9.26 h | total protein half-life in vivo [8]: 4.7 ± 0.96 h | total protein half-life in vivo [9]: 6.5 ± 0.82 h

MLKRCLSPLTLVNQVALIVLLSTAIGLAGMAVSGWLVQGVQGSAHAINKAGSLRMQSYRLLAAVPLSEKDKPLIKEMEQTAFSAELTRAAERDGQLAQLQGLQDYWRNELIPALMRAQNRETVSADVSQFVAGLDQLVSGFDRTTEMRIETVVLVHRVMAVFMALLLVFTIIWLRARLLQPWRQLLAMASAVSHRDFTQRANISGRNEMAMLGTALNNMSAELAESYAVLEQRVQEKTAGLEHKNQILSFLWQANRRLHSRAPLCERLSPVLNGLQNLTLLRDIELRVYDTDDEENHQEFTCQPDMTCDDKGCQLCPRGVLPVGDRGTTLKWRLADSHTQYGILLATLPQGRHLSHDQQQLVDTLVEQLTATLALDRHQERQQQLIVMEERATIARELHDSIAQSLSCMKMQVSCLQMQGDALPESSRELLSQIRNELNASWAQLRELLTTFRLQLTEPGLRPALEASCEEYSAKFGFPVKLDYQLPPRLVPSHQAIHLLQIAREALSNALKHSQASEVVVTVAQNDNQVKLTVQDNGCGVPENAIRSNHYGMIIMRDRAQSLRGDCRVRRRESGGTEVVVTFIPEKTFTDVQGDTHE [P0AFA2]
total protein half-life in vivo [1]: 6.01 ± 0.078 h | total protein half-life in vivo [2]: 6.25 ± 0.066 h | total protein half-life in vivo [3]: 5.32 ± 0.25 h | total protein half-life in vivo [4]: 5.44 ± 0.34 h | total protein half-life in vivo [5]: 3.11 ± 0.058 h | total protein half-life in vivo [6]: 5.44 ± 0.39 h | total protein half-life in vivo [7]: 10.9 ± 0.31 h | total protein half-life in vivo [8]: 5.65 ± 0.069 h | total protein half-life in vivo [11]: 11.1 ± 0.78 h | total protein half-life in vivo [9]: 6.05 ± 0.12 h | total protein half-life in vivo [10]: 11 ± 1.5 h

MLKREMNIADYDAELWQAMEQEKVRQEEHIELIASENYTSPRVMQAQGSQLTNKYAEGYPGKRYYGGCEYVDIVEQLAIDRAKELFGADYANVQPHSGSQANFAVYTALLEPGDTVLGMNLAHGGHLTHGSPVNFSGKLYNIVPYGIDATGHIDYADLEKQAKEHKPKMIIGGFSAYSGVVDWAKMREIADSIGAYLFVDMAHVAGLVAAGVYPNPVPHAHVVTTTTHKTLAGPRGGLILAKGGSEELYKKLNSAVFPGGQGGPLMHVIAGKAVALKEAMEPEFKTYQQQVAKNAKAMVEVFLERGYKVVSGGTDNHLFLVDLVDKNLTGKEADAALGRANITVNKNSVPNDPKSPFVTSGIRVGTPAITRRGFKEAEAKELAGWMCDVLDSINDEAVIERIKGKVLDICARYPVYA [P0A825]
total protein half-life in vivo [1]: 4.68 ± 1 h | total protein half-life in vivo [2]: 3.83 ± 0.091 h | total protein half-life in vivo [12]: 3.87 ± 0.15 h | total protein half-life in vivo [3]: 4.35 ± 0.27 h | total protein half-life in vivo [4]: 3.8 ± 0.26 h | total protein half-life in vivo [5]: 3.22 ± 0.18 h | total protein half-life in vivo [6]: 5.51 ± 0.18 h | total protein half-life in vivo [7]: 10.7 ± 2.1 h | total protein half-life in vivo [8]: 3.814 ± 0.011 h | total protein half-life in vivo [11]: 5.98 ± 0.077 h | total protein half-life in vivo [9]: 5.73 ± 0.5 h | total protein half-life in vivo [10]: 11.3 ± 0.74 h

MLKRLLKRPSLNLLAWLLLAAFYISICLNIAFFKQVLQALPLDSLHNVLVFLSMPVVAFSVINIVLTLSSFLWLNRPLACLFILVGAAAQYFIMTYGIVIDRSMIANIIDTTPAESYALMTPQMLLTLGFSGVLAALIACWIKIKPATSRLRSVLFRGANILVSVLLILLVAALFYKDYASLFRNNKELVKSLSPSNSIVASWSWYSHQRLANLPLVRIGEDAHRNPLMQNEKRKNLTILIVGETSRAENFSLNGYPRETNPRLAKDNVVYFPNTASCGTATAVSVPCMFSDMPREHYKEELAQHQEGVLDIIQRAGINVLWNDNDGGCKGACDRVPHQNVTALNLPDQCINGECYDEVLFHGLEEYINNLQGDGVIVLHTIGSHGPTYYNRYPPQFRKFTPTCDTNEIQTCTKEQLVNTYDNTLVYVDYIVDKAINLLKEHQDKFTTSLVYLSDHGESLGENGIYLHGLPYAIAPDSQKQVPMLLWLSEDYQKRYQVDQNCLQKQAQTQHYSQDNLFSTLLGLTGVETKYYQAADDILQTCRRVSE
total protein half-life in vivo [1]: 7.04 ± 1.1 h | total protein half-life in vivo [12]: 6.05 ± 0.36 h | total protein half-life in vivo [3]: 6.41 ± 0.43 h | total protein half-life in vivo [4]: 6.19 ± 0.59 h | total protein half-life in vivo [5]: 3.22 ± 0.046 h | total protein half-life in vivo [6]: 6.12 ± 0.22 h | total protein half-life in vivo [7]: 10.7 ± 1.6 h | total protein half-life in vivo [8]: 6.42 ± 0.21 h | total protein half-life in vivo [11]: 12.3 ± 0.34 h | total protein half-life in vivo [9]: 6.03 ± 0.31 h | total protein half-life in vivo [10]: 13 ± 0.68 h

MLKRVFLSLLVLIGLLLLTVLGLDRWMSWKTAPYIYDELQDLPYRQVGVVLGTAKYYRTGVINQYYRYRIQGAINAYNSGKVNYLLLSGDNALQSYNEPMTMRKDLIAAGVDPSDIVLDYAGFRTLDSIVRTRKVFDTNDFIIITQRFHCERALFIALHMGIQAQCYAVPSPKDMLSVRIREFAARFGALADLYIFKREPRFLGPLVPIPAMHQVPEDAQGYPAVTPEQLLELQKKQGK [P0AFY2]
total protein half-life in vivo [1]: 5.75 ± 0.44 h | total protein half-life in vivo [12]: 6.88 ± 0.82 h | total protein half-life in vivo [3]: 5.72 ± 0.66 h | total protein half-life in vivo [4]: 6.021 ± 0.027 h | total protein half-life in vivo [5]: 3.1 ± 0.074 h | total protein half-life in vivo [6]: 5.81 ± 0.24 h | total protein half-life in vivo [7]: 10.9 ± 0.74 h | total protein half-life in vivo [8]: 5.85 ± 0.23 h | total protein half-life in vivo [11]: 11.6 ± 1.1 h | total protein half-life in vivo [9]: 5.92 ± 0.26 h | total protein half-life in vivo [10]: 12.3 ± 0.33 h

MLKTIQDKARHRTRPLWAWLKLLWQRIDEDNMTTLAGNLAYVSLLSLVPLVAVVFALFAAFPMFSDVSIQLRHFIFANFLPATGDVIQRYIEQFVANSNKMTAVGACGLIVTALLLMYSIDSALNTIWRSKRARPKIYSFAVYWMILTLGPLLAGASLAISSYLLSLRWASDLNTVIDNVLRIFPLLLSWISFWLLYSIVPTIRVPNRDAIVGAFVAALLFEAGKKGFALYITMFPSYQLIYGVLAVIPILFVWVYWTWCIVLLGAEITVTLGEYRKLKQAAEQEEDDEP [P0A8K8]
total protein half-life in vivo [4]: 4.46 h | total protein half-life in vivo [5]: > 4 h | total protein half-life in vivo [8]: 7.67 h | total protein half-life in vivo [10]: > 16 h

MLKTIRKHGITLALFAAGSTGLTAAINQMTKTTIAEQASLQQKALFDQVLPAERYNNALAQSCYLVTAPELGKGEHRVYIAKQDDKPVAAVLEATAPDGYSGAIQLLVGADFNGTVLGTRVTEHHETPGLGDKIELRLSDWITHFAGKKISGADDAHWAVKKDGGDFDQFTGATITPRAVVNAVKRAGLYAQTLPAQLSQLPACGE
total protein half-life in vivo [1]: 5.83 ± 1.8 h | total protein half-life in vivo [12]: 6.171 ± 0.022 h | total protein half-life in vivo [3]: 5.52 ± 1.2 h | total protein half-life in vivo [4]: 6.06 ± 0.48 h | total protein half-life in vivo [5]: 3.07 ± 0.086 h | total protein half-life in vivo [6]: 5.7 ± 0.36 h | total protein half-life in vivo [7]: 10.6 ± 1.6 h | total protein half-life in vivo [8]: 5.75 ± 0.07 h | total protein half-life in vivo [11]: 11.9 ± 0.64 h | total protein half-life in vivo [9]: 5.82 ± 0.13 h | total protein half-life in vivo [10]: 11.9 ± 0.49 h

MLLAGAIFVLTIVLVIWQPKGLGIGWSATLGAVLALVTGVVHPGDIPVVWNIVWNATAAFIAVIIISLLLDESGFFEWAALHVSRWGNGRGRLLFTWIVLLGAAVAALFANDGAALILTPIVIAMLLALGFSKGTTLAFVMAAGFIADTASLPLIVSNLVNIVSADFFGLGFREYASVMVPVDIAAIVATLVMLHLYFRKDIPQNYDMALLKSPAEAIKDPATFKTGWVVLLLLLVGFFVLEPLGIPVSAIAAVGALILFVVAKRGHAINTGKVLRGAPWQIVIFSLGMYLVVYGLRNAGLTEYLSGVLNVLADNGLWAATLGTGFLTAFLSSIMNNMPTVLVGALSIDGSTASGVIKEAMVYANVIGCDLGPKITPIGSLATLLWLHVLSQKNMTISWGYYFRTGIIMTLPVLFVTLAALALRLSFTL [P0AB93]
total protein half-life in vivo [12]: 6.25 h | total protein half-life in vivo [8]: 5.83 h | total protein half-life in vivo [11]: 12.1 h | total protein half-life in vivo [10]: 13.8 ± 1.1 h

MLLSIITVAFRNLEGIVKTHASLAHLAQVEDISFEWIVVDGGSNDGTREYLENLNGIFNLRFVSEPDNGIYDAMNKGIAMAQGKFALFLNSGDIFHQNAANFVRKLKMQKDNVMITGDALLDFGDGHKIKRSAKPGWYIYHSLPASHQAIFFPVSGLKKWRYDLEYKVSSDYALAAKMYKAGYAFKKLNGLVSEFSMGGVSTTNNMELCADAKKVQRQILHVPGFWAELSWHLRQRTTSKTKALYNKV
total protein half-life in vivo [1]: 4.85 ± 0.28 h | total protein half-life in vivo [3]: 1.5 ± 0.23 h | total protein half-life in vivo [4]: 0.818 ± 0.0095 h
